# Test results reported in the nanobody polyreactivity screen of Harvey et al. (2022).
# Experiment: yeast display, Sf9 membrane polyspecificity reagent, FACS + sequencing; frameworks hold sequencing errors
# In short: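 Sorting gates, low and high (top ~1%), were placed on anti-HA fluorescence to track expression and on streptavidin fluorescence to track reagent binding. A clone's polyreactivity label is taken from the gate it came out of. The reagent was 10% biotinylated, detergent-solubilized Sf9 membrane, applied for 1 hour at 4 °C to galactose-induced yeast display cells.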
row,Sequence,polyreactivity (PSR sort gate)
1,QVQLVESGGGLVQAGGSLRLSCAASGRIFRTNAMGWYRQAPGKERELVASINSDGSTNYADSVKGRFTISRDNAKNTVYLQMNSLKPDDTAVYYCAAGYFWGRIKYYYWGQCTQVTVSS,high polyreactivity
2,QVQLVESGGGLVQAGGSLRLSCAASGRIFRTYAMGWYRQAPGKERELVASISWGGGSRTYADSVKGRFTISRDNAKNTVYLQMNSLKPEDTGVYYCAADVHYTFGMDYWGQGTQVTVSS,high polyreactivity
3,QVQLVESGGGLVQAGGSLRLSCAASGRIFRVNTMGWYRQAPGKERELVAAISTSGGTTYYADSVKGRFTISRDNAKNTVYIQLNSLKPEDTAVYYCNASYLTRRDGYIEDAIYDYWGQGTQVTVSS,low polyreactivity
4,QVQLVESGGGLVQAGGSLRLSCAASGRIFRVNTMGWYRQSPGKERELVAAIRSSGTRTYYADSVKGRFTISRDNAKNTVYLQMNSLKPEDTAVYYCAATGRRGSGYYYWGQGTQVTVSS,high polyreactivity
5,QVQLVESGGGLVQAGGSLRLSCAASGRIFRVYAMGWYRQAPGKERELVAAINRSGGTTYYADSVKGRFTISRDNAKHTVYLQMNSLKPEDTAVYYCNAPVRRDVAYGYWGQGTQVTVSS,high polyreactivity
6,QVQLVESGGGLVQAGGSLRLSCAASGRIFRVYAMGWYRQAPGKERELVAAISWSGGRTYYADSVKGRFTISRDNAKNTVYLQMNSLKPEDTAVYYCAAVSCYALGFDYWGQGTQVTVSS,high polyreactivity
7,QVQLVESGGGLVQAGGSLRLSCAASGRIFRVYAMGWYRQAPGKERELVASISSGGSTNYADSVKGRFTISRENAKNTVYLQMNSLKPEDTAVYYCAADYWYRLFWYYGAPLDYWGQGTQVTVSS,low polyreactivity
8,QVQLVESGGGLVQAGGSLRLSCAASGRIFRWNAMGWYRQAPGKERELVAAISSSGGRTYYADSVKGRFTISRDTAKNTVYLQMNSLKPEDTAVYYCAAYPFSDEYDYWGQGTQVTVSS,high polyreactivity
9,QVQLVESGGGLVQAGGSLRLSCAASGRIFRWNAMGWYRQAPGKERELVAAISWNGGRTYYADSVKGRFTISRDNAKNTVYLQMNSLKPEDTAVYYCAAPHSVPDLHSGDYWGQGSQVTVSS,low polyreactivity
10,QVQLVESGGGLVQAGGSLRLSCAASGRIFRWNAMGWYRQAPGKERELVAVISSGGSTNYADSVKGRFTISRDNAKNTVYLQMNSLKPEDTAVYYCAADEGYVWPYYGWGFGKYDYWGQGTQVTVSS,low polyreactivity
11,QVQLVESGGGLVQAGGSLRLSCAASGRIFRWYAMGWYRQAPGKERELVAAISWSGGRTYYADSVKGRFTISRDNAKNTVYFQMNSLKPEDTAVYYCAAEGAIPRYYIGGVDYWGQGTQVTVSS,high polyreactivity
12,QVQLVESGGGLVQAGGSLRLSCAASGRIFRWYAMGWYRQAPGKERELVAAISYSGGSTYYADSVKGRFTISRDNAKNTVYLQMNSLKPEDTAVYYCAAATYYKFDYWGQGTQVTVSS,high polyreactivity
13,QVQLVESGGGLVQAGGSLRLSCAASGRIFRWYAMGWYRQAPGKERELVATISSTGGSTYYADSVKGRFTLSRDNAKNTVYLQMNSLKPEDTAVYYCNAVVYGIFLYAWYDYWGQGTQVTVSS,low polyreactivity
14,QVQLVESGGGLVQAGGSLRLSCAASGRIFRYNAMGWSRQAPGKERELVAAISRRGGTTYYADSVKGRFTISRDNAKNTVYLQMNSLKPEDTAVYDCAAQYRQRRHDYWGQGTQVTVSS,high polyreactivity
15,QVQLVESGGGLVQAGGSLRLSCAASGRIFRYNAMGWYRQAPGKERELVAAITRSGGRTYYADSVKGRFTISRDNAKYTVYLQMNSLKPEDTAVYYCAADKYPSSPYVGDVDYWGQGTQVTVSS,high polyreactivity
16,QVQLVESGGGLVQAGGSLRLSCAASGRIFRYNAMGWYRQAPGKGRELVAAITWDGGSTYYADSVKGRFTISRDNAKYTVYLQMNSLKPEYTAVYYCKAVTRSYYSDYYWGQGTQVTVSS,high polyreactivity

row,Sequence,polyreactivity (PSR sort gate)
1,QVQLVESGGGLVQAGGSLRLSCAASGRIFRYYAMGCYRQAPGKERELVAAITRGGSTNYADSVKGRFTISRDNAKNTVYLQMNSLKPEDTAVYYCAAAYRGRYKYYYWGQGSQVTVSS,high polyreactivity
2,QVQLVESGGGLVQAGGSLRLSCAASGRIFRYYAMGSYRQAPGKERELVAAISRSGGSTYYADSVKGRFTISRDNAKNTVYLQMNSLKPEDTAVYSCAARLAGRGSSSSRVVRTGGYWGQGTQVTVSS,high polyreactivity
3,QVQLVESGGGLVQAGGSLRLSCAASGRIFRYYAMGWYRQAPGIERELVAAISYRGGSTYYADSVKGRFTISRDNAKNTVYLQMNSLKPEDTAVYYCNIVPRIDTRYDYWGQGTQVTVSS,high polyreactivity
4,QVQLVESGGGLVQAGGSLRLSCAASGRIFRYYAMGWYRQAPGKERELVAAIRSGGSTNYADSVKGRFTISRDNATNTVYLQLNSLKPEDTAVYYCNARYRYFKGGYWGQGTQVTVAS,high polyreactivity
5,QVQLVESGGGLVQAGGSLRLSCAASGRIFRYYAMGWYRQAPGKERELVAAISRSGSTNYADSVKGRFTISRDNAKNTVYLQMNSLKPEDTAVYYCAADSNYLYFWRRYKRMDYWGQGTQVTVSS,high polyreactivity
6,QVQLVESGGGLVQAGGSLRLSCAASGRIFRYYAMGWYRQAPGKERELVAAITGRGTSTYYADSVKGRFTISRDNAKNTVYVQMNSLKPEDTAVYYCAAGSVLRYWAGDYWGQGTQVTVSS,low polyreactivity
7,QVQLVESGGGLVQAGGSLRLSCAASGRIFRYYAMGWYRQAPGKERELVAAITRGGSTNYADSVKGRFTISRDNAKNTVYLQMNSLKPEDTAVYYCATRQSWYPRWMDYWGQGTQVTVSS,high polyreactivity
8,QVQLVESGGGLVQAGGSLRLSCAASGRIFRYYAMGWYRQAPGKERELVAGISWRGSSTYYADSVKGRFTISRDNAKNTVYLQMNSLKPADTAVYYCNRDLSIIPVTGGRFYYWGQGTQVTVSS,high polyreactivity
9,QVQLVESGGGLVQAGGSLRLSCAASGRIFRYYAMGWYRQAPGKERELVATIDWSVGSTYYADSVKGRFTISRDNAKNTVYLQMNSLKPEDTAVYYCAKRGPQVWTFDYDSSGQGTQVTVSS,low polyreactivity
10,QVQLVESGGGLVQAGGSLRLSCAASGRIFRYYAMGWYRQAPGKETELVAAISKSGGGTFYADSVKGRFTISRDNAKNPVYLQMNSLKPEDTAVYYCAARDKGLGKHDYWGQGTQVTVSS,high polyreactivity
11,QVQLVESGGGLVQAGGSLRLSCAASGRIFRYYAMGWYRQAPWKERELVAVINWSGGSTYYADSVKGRFTISRDNAKNTVYLLMNSLKPEDTAVYYCNVYSVYPQFNYWGQGTQVTVSS,high polyreactivity
12,QVQLVESGGGLVQAGGSLRLSCAASGRIFRYYVMGWYRHAPGKEREFVASISGRGASTYYADSVKGRFTISRDNAKNTVYLLMNSLKPEDTAVYYCNADVWLLSYFPEYDYWGQGTQVTVSS,low polyreactivity
13,QVQLVESGGGLVQAGGSLRLSCAASGRIFSANAMGWYRQAPGKERELVATISTGGGRTYYADSVKGRFTISRDNAKNTVYLQMNSLKPVDTAVYYCNATRNYARVRYYYWGQGTQVTVSS,high polyreactivity
14,QVQLVESGGGLVQAGGSLRLSCAASGRIFSAYAMGWYRQAPGKEREFVAAISARGGSTNYADSVKGRFTISRDNAKNTVYLQMNSLNPEDTAVYYCNDRYVQWYWIAKVIHIDNDYWGQGTQVTVSS,low polyreactivity
15,QVQLVESGGGLVQAGGSLRLSCAASGRIFSAYAMGWYRQAPGKERELVAAITLSDGSTYYADSVKGRFTISRDNAKNTVYLQMNSLKPEDTAVYYCNADWYAYPYGYWGQGTQVTVSS,low polyreactivity
16,QVQLVESGGGLVQAGGSLRLSCAASGRIFSDYAMGWYRQAPGKERELVAAISWGGGRTYYADSVKGRFTISRDNAKNTVYLQMNSLKPEDTAVYYCNRGTVNSWARGYWGQGTQVTVSS,high polyreactivity
